Where two headings read alike, the source gives them in different places.
What was measured:
crystal structure [1] = biological target: the molecule itself; assay: crystal structure
crystal structure [2] = biological target: the molecule itself; assay: crystal structure; remark: listed apart in the source

B1: KaiC-CV (KaiC with S431C and T432V substitutions) (enzyme)
chain: MTSAEMTSPNNNSEHQAIAKMRTMIEGFDDISHGGLPIGRSTLVSGTSGTGKTLFSIQFLYNGIIEFDEPGVFVTFEETPQDIIKNARSFGWDLAKLVDEGKLFILDASPDPEGQEVVGGFDLSALIERINYAIQKYRARRVSIDSVTSVFQQYDASSVVRRELFRLVARLKQIGATTVMTTERIEEYGPIARYGVEEFVSDNVVILRNVLEGERRRRTLEILKLRGTSHMKGEYPFTITDHGINIFPLGAMRLTQRSSNVRVSSGVVRLDEMCGGGFFKDSIILATGATGTGKTLLVSRFVENACANKERAILFAYEESRAQLLRNAYSWGMDFEEMERQNLLKIVCAYPESAGLEDHLQIIKSEINDFKPARIAIDSLSALARGVSNNAFRQFVIGVTGYAKQEEITGLFTNTSDQFMGAHSITDSHICVITDTIILLQYVEIRGEMSRAINVFKMRGSWHDKAIREFMISDKGPDIKDSFRNFERIISGSPTRITVDEKSELSRIVRGVQEKGPES
Question: For B1, which “stoichiometry N” value (crystal structure [1]) is on record?
Answer: Its value is 6.

B2: KaiC-TV (KaiC with threonine at position 431 and valine at position 432) (enzyme)
chain: MTSAEMTSPNNNSEHQAIAKMRTMIEGFDDISHGGLPIGRSTLVSGTSGTGKTLFSIQFLYNGIIEFDEPGVFVTFEETPQDIIKNARSFGWDLAKLVDEGKLFILDASPDPEGQEVVGGFDLSALIERINYAIQKYRARRVSIDSVTSVFQQYDASSVVRRELFRLVARLKQIGATTVMTTERIEEYGPIARYGVEEFVSDNVVILRNVLEGERRRRTLEILKLRGTSHMKGEYPFTITDHGINIFPLGAMRLTQRSSNVRVSSGVVRLDEMCGGGFFKDSIILATGATGTGKTLLVSRFVENACANKERAILFAYEESRAQLLRNAYSWGMDFEEMERQNLLKIVCAYPESAGLEDHLQIIKSEINDFKPARIAIDSLSALARGVSNNAFRQFVIGVTGYAKQEEITGLFTNTSDQFMGAHSITDSHITVITDTIILLQYVEIRGEMSRAINVFKMRGSWHDKAIREFMISDKGPDIKDSFRNFERIISGSPTRITVDEKSELSRIVRGVQEKGPES
Question: For B2, which “stoichiometry N” value (crystal structure [2]) is on record?
Answer: Its value is 6.

Source: PMC11128299 (Biophysics and Physicobiology, 2023)
